The values below come from PMC7817830.

The target of test [1] is Flag-tagged WT PKM2 expressed in 32D BCR-ABL cells (UniProt P14618). Nature of the test: SEC; cell lysate of 32D BCR-ABL cells on Superdex 200 10/300GL, 50 mM phosphate, 0.15 M NaCl, pH 7.2; fractions by UV absorbance and western blot.
Test [2] deals with recombinant His-tagged PKM2 after the in vitro SUMOylation reaction (SUMO1 conjugated at K270) (UniProt P14618). As to the kind of experiment: SEC; samples of the in vitro SUMOylation reaction (recombinant PKM2 or PKM1 with or without purified SUMO1, E1 and E2); UV absorbance and western blot of the fractions with anti-PKM2 or anti-PKM1; tetramer, dimer, monomer by molecular weight.

Sequence of recombinant His-tagged PKM2 after the in vitro SUMOylation reaction (SUMO1 conjugated at K270) (from UniProt P14618 1-531; P63165 1-97) (enzyme) (P14618 whole entry): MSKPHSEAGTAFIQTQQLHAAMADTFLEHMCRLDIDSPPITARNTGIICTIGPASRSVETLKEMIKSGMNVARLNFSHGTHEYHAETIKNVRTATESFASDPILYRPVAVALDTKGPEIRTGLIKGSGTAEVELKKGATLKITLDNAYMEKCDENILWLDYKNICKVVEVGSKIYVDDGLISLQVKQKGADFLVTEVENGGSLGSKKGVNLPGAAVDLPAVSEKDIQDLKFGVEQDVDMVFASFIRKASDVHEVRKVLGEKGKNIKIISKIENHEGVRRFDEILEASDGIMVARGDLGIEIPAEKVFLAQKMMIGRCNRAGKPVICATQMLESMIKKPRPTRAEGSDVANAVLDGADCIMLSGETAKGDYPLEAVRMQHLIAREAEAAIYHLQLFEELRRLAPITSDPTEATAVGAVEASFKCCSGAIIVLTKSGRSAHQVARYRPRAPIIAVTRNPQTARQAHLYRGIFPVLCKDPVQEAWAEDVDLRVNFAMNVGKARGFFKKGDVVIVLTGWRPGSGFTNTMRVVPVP
Sequence of recombinant His-tagged PKM2 after the in vitro SUMOylation reaction (SUMO1 conjugated at K270) (from UniProt P14618 1-531; P63165 1-97) (enzyme) (P63165 1-97): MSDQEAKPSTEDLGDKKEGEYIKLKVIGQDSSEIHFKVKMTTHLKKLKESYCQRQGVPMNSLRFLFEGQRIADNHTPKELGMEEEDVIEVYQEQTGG
Sequence of Flag-tagged WT PKM2 expressed in 32D BCR-ABL cells, P14618 1-531 (enzyme; other documents disagree on this pair) (P14618 whole entry): as the sequence (P14618 whole entry) above

In general, stoichiometry N refers to the number of molecules, sites or subunits per partner or assembly. On to “Flag-tagged WT PKM2 expressed in 32D BCR-ABL cells, P14618 1-531 (enzyme; other documents disagree on this pair)”, for which the stoichiometry N in test [1] was found to be 2.
Consider “recombinant His-tagged PKM2 after the in vitro SUMOylation reaction (SUMO1 conjugated at K270) (from UniProt P14618 1-531; P63165 1-97) (enzyme)”, for which the stoichiometry N in test [2] is 2.
